# Test results reported in patent publication US20110166062A1.
# Legend:
# Test in all cases: cell-based or functional assay
# glucagon receptor = glucagon receptor (UniProt P47871)
# GIP receptor = GIP receptor (UniProt P48546)
# GLP-1 receptor = GLP-1 receptor (UniProt P43220)
# Sequence of GLP-1 receptor (P43220 24-463 limits assumed): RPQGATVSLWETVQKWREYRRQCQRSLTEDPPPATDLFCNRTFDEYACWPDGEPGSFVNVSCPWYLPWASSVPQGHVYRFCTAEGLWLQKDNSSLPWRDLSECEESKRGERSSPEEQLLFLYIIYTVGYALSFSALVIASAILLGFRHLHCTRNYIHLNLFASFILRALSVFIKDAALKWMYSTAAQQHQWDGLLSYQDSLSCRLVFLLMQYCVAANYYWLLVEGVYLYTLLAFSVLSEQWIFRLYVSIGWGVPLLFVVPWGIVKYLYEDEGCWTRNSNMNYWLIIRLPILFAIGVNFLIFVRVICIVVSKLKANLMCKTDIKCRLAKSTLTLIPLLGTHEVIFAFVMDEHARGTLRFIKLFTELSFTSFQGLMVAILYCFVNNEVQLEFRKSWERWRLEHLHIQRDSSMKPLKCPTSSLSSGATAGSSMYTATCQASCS
# Sequence of glucagon receptor (P47871 26-477 limits assumed): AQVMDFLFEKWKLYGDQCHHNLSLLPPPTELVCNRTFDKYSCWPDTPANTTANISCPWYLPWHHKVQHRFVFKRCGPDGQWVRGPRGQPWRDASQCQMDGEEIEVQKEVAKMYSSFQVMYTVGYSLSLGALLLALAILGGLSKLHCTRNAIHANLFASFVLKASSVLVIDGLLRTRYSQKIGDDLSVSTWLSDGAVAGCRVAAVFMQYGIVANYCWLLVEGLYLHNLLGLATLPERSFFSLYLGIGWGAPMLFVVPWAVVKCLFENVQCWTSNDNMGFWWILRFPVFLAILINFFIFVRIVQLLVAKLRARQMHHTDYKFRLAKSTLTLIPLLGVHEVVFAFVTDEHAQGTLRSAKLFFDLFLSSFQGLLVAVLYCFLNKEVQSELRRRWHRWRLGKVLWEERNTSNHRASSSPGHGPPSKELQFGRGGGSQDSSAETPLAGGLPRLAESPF
# Sequence of GIP receptor (P48546 22-466): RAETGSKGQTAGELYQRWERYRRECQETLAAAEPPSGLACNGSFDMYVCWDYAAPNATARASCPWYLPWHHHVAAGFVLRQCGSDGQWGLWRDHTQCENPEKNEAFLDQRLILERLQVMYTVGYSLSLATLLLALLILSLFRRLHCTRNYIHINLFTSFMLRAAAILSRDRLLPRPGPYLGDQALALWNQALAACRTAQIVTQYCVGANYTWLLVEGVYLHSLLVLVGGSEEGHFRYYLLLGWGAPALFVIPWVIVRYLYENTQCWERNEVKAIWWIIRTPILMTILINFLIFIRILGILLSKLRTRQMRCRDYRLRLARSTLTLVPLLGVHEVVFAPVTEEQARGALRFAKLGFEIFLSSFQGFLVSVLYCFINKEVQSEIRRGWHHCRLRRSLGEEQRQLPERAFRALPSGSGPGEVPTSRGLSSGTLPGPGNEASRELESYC
% activity at the glucagon receptor (glucagon receptor),EC50 (GIP receptor),EC50 (GLP-1 receptor),EC50 (glucagon receptor),Substance
0.04%,–,–,–,Liraglutide (peptide)
–,0.242 nM,26.9 nM,> 4000 nM,mt-103 (peptide)
